Source: the DeepSol protein solubility set

assay: soluble on expression in E. coli; label from the status in PepcDB or PDB records

Sequence	soluble on expression in E. coli
MFQLLAVCPMGLEAVVAREIQELGYETNVENGRIFFEGDASAIVKANLWLRTADRIKIVVGRFNATTFDELFEQTKALPWESIIDKEGNFPVQGRSVKSTLHSVPDCQAITKKAIVERLRRAYNEKGWLNESGAKYPVEVAILKDNVLLTIDTSGSGLNRRGYRLAQGEAPIKETLAASLIRLANWKGDTPLIDPFCGSGTIAIEACLIAQNIAPGFNREFVSEQWNIMPANIYDDYRDEADKMADYDKEIEVYASDIDPEMVEIAKRNAEEVGLSDIIKFSVKDVNTLTIDTEEPVALIGNPPYGERIGDREEVEEMYRYIGKLMKQHPFLSTYILTSNKEFEYLVNRKATKRRKLFNGYIECTYYQYWGKKTERKTIEN	not soluble
HLDGRGAAMMEMAGLAQKGGAVQIHCRIAEKPSDISAIRVAVGEADGVIGGDLVVTAGAKTLGLMSQGRTGAVVNSHDIVTGEFTRNTDFRVPSDRLQVSLQARLQDRVAFLDATELARILMGDSIYSNMMVFGAAWQRGLIPLSAEAIQRAIELNGAAVAQNARAFALGRWAVL	not soluble
SSSEGFICPQCMKSLGSADELFKHYEAVHDAGND	soluble
MASSLHSPGQAFRAALAKENPLQIVGAINANHALLAQRAGYQAIYLSGGGVAAGSLGLPDLGISTLDDVLTDIRRITDVCPLPLLVDADIGFGSSAFNVARTVKSIAKAGAAALHIEDQVGAKRCGHRPNKAIVSKEEMVDRIRAAVDARTDPNFVIMARTDALAVEGLEAALDRAQAYVDAGADMLFPEAITELSMYRRFADVAQVPILANITEFGATPLFTTDELRSAHVAMALYPLSAFRAMNRAAEKVYTVLRQEGTQKNVIDIMQTRNELYESINYYQFEEKLDALYRNKKSLEHHHHHH	soluble
MVVNTHRVPSVDVLLDVITERIGLINGAKKLYTTSGTLVKDINKIKDGQNYVASSSHFTPAAYGGQHQPIQKEVKLKKKKKKRSQTVQPRKTEHIELGDEISIPLNEPVVLEKKKKKKKKLVQKNLDLHGSIETLAETAEIELPSEIEDSEEEDEHEHRRSATPDHHRPATKHSVAPSRASSRRGSRRDEEKREEEDEERKKKDEKKRKSVSSSRRKSQAQHHGQPNWGDLSSFTKNIESLLKN	not soluble
MQRLSGLDASFLYLETSTQLLHVCGVIVLDVSTVPGGYTFAQLKAELGARTEAIPSFRRKLQDSKFNLDHPVWVEDTDFDIDRHCHRVALPAPGGRDELAELCGDIAGIPLDRARPLWEMWVIEGLEDGSVAVMSKMHHAGVDGITGANMMAQLCGLEPDAPRPGPDDSAESAGQASTLDIAVGGLLAVASRPAKLLRIVPQSLTLLPRWIGRARRGAAMPAPFTAPRTSLNGTLTSHRNLAFTQLDLEKVKTVKDAFDVKVNDVVLALCSGALRKYLQDRRELPDKSLVAIVPVSVHGKSDRPGTNQVSGMFTQLGTQIEDPAERLLAIGEHNSTSKEHNETLGASLLQDWSQFAGQAVFGTAMRLYSTLGLAERHPVVHNLVISNVPGPSVPLYFLGALIKAMYPLGPIFHGAGLNVTVMSLNGQLDVGLMSCPELAPHLWDLVDAFPAALDELVEAAGNRS	not soluble
ISGQKEFEEKPLESKEKYQDLFNLIEQAVQIGEIVFDENGRSIDNIILDVNLAYEKHSGLRREQVIGRGFKEIFPIVEQRWLDRYGEVVRTGMGMHFEEYNASLDRWFEVFASPMGSNRFIAVFSDIT	not soluble
MVFGFTKRDRRVPDLSRYDYYYQNHEDYNKSPQLSAAAASAASAASPDRTNYSRSHSLVSHAPSIPRQRSSVKSPGRRLSTSSAAPPTSRAAAKQYSQKTYSLRSQRSGEYHLHPPGYTTNGSRMNSMTSGANVRRNYGKNKSTAGNNNDSRANSITVKTTQVTDPSGRTQSITKKTIRKINGYEYVETTTTTKNLVPLGDSQRHFDEFSENYMLQDDDILEEQASDNIHDIIEENETDNEKPYSPVSESHLQDDSELNVEKPDFPLGSYFHHKYSTDVMPLEEESSLSNFSDALDYIPPTHQTSSKYIHNKRKQASTTRRKKRPPAVKNAEAEAKKPLTEAEMYLKALEVAKRNVYHTDAASDNASAPLGSNKSRKSRMGQKMTLRSSSDSPTATANLVKSNVEVQPKRFTSSFFSRNTKSAPHEVHNHSVSTHFKSNKAVDPVPEPKSANTGLTDKEMYDQALKIAQARYYNSHGIQPEAVDNSTTAAKPRQVGVSHLGSTGSIPPNEQHYLGDSEIPVQSEVHEYEPIPLQKTKTTGSSKNKFKTMFDKVLQFSQENYGYQHKKEQGEQTPVTRNAEESFPAASISEGVTTAKPSSNEGVMTNPVVTDSPSPLQQQIDSTTASSNGQSQGNVPTSAVASTTRTRSPELQDNLKSSSSLLQDQTPQRQEDATDPTTSSTNELSAAEPTMVTSTHATKTIQAQTQDPPTKHKKSSFFTKLFKKKSSR	soluble
